Assay results reported in patent US20260125454A1 (SHANGHAI JUNSHI BIOSCIENCES, published 2026).
Read-outs that look alike come from different tables or passages of the source.

T1: Biotin-huCGRPaSA (human, not fully specified; biotin (position not given))
T1 construct: exact construct ('aSA') not explained; also called Biotin CGRPaSA; full-length (1-37) CGRP
T1 peptide: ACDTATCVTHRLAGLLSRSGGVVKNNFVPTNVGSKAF

T2: human β-CGRP (human, UniProt P10092 82-118, not fully specified)
T2 construct: mature; also called human full-length (1-37) β-CGRP polypeptide (Anaspec)
T2 peptide (looked up): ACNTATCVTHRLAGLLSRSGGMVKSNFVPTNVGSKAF


Key:
CGRP antigen [1] = test: cell-based or functional assay
Biotin-huCGRPaSA [2] = target: T1, Biotin-huCGRPaSA; test: ELISA, purified antibody; relative to reference 47-RM-20190815
Procedure: Streptavidin was diluted to […] by using PBS (Hyclone) and added into a plate at 100 μL/well. The plate was incubated in a thermostat incubator at 37° C. for 90 min and then washed. 2% BSA was added to the plate at 200 μL/well, and the plate was incubated in the thermostat incubator at 37° C. for 90 min and washed. Biotin-huCGRPaSA was diluted to 2.0 μg/mL with 2% BSA and added into the plate at 100 μL/well, and the plate was incubated in the thermostat incubator at 37° C. for 60 min. The chimeric antibodies in Table 3 and reference antibody (47-RM-20190815) were diluted to 1000 ng/ml with a diluent (2% BSA) and serially 10-fold diluted to 1 ng/mL. All the chimeric antibody solutions and the reference antibody solution were added into plates at 100 μL/well, and the plates were incubated in a thermostat incubator at 37° C. for 60 min and washed. An HRP-conjugated mouse anti-human antibody IgG4 (manufacturer: Southern Biotech, Cat. No. 9200-05; Fc specificity) was diluted 5000-fold with 2% BSA and added into the plates at 100 μL/well, and the plates were incubated in the thermostat incubator at 37° C. for 60 min and washed. 0.1 mg/mL chromogenic reagent TMB was carefully added at 100 μL/well to avoid bubbles, and the system was incubated at 37° C. for 5 min away from light for chromogenic reaction. Finally, a 2 M hydrochloric acid solution was added at 100 μL/well to stop the reaction while avoiding bubbles, and the plates were read on a microplate reader within 10 min (the detection wavelength was 450 nm; the reference wavelength was 620 nm). EC₅₀ was fit by using a four-parameter logistic regression (4PL) model.

CGRP antigen [3] = test: cell-based or functional assay; remark: listed apart in the source
Biotin-huCGRPaSA [4] = target: T1, Biotin-huCGRPaSA; test: ELISA, transfection supernatant, biotin-CGRP on streptavidin
Procedure: Streptavidin was diluted to 0.5 μg/mL by using PBS (Hyclone) and added into a plate at 100 μL/well. The plate was incubated in a thermostat incubator at 37° C. for 90 min and then washed. 2% BSA was added to the plate at 200 μL/well, and the plate was incubated in the thermostat incubator at 37° C. for 90 min and washed. Biotin-huCGRPaSA was diluted to 2.0 μg/mL with 2% BSA and added into the plate at 100 μL/well, and the plate was incubated in the thermostat incubator at 37° C. for 60 min. The reference antibody (47-RM) was diluted to 2500 ng/ml with a diluent (2% BSA) and serially 4-fold diluted to 0.15 ng/mL, and the chimeric antibodies were diluted with a cell supernatant stock solution. All the chimeric antibody solutions and the reference antibody solution were added into plates at 80 μL/well, and the plates were incubated in a thermostat incubator at 37° C. for 60 min and washed. An HRP-conjugated mouse anti-human antibody IgG4 (manufacturer: Southern Biotech, Cat. No. 9200-05; Fc specificity) was diluted 5000-fold with 2% BSA and added into the plates at 100 μL/well, and the plates were incubated in the thermostat incubator at 37° C. for 60 min and washed. 0.1 mg/mL chromogenic reagent TMB was carefully added at 100 μL/well to avoid bubbles, and the system was incubated at 37° C. for 10 min away from light for chromogenic reaction. Finally, a 2 M hydrochloric acid solution was added at 100 μL/well to stop the reaction while avoiding bubbles, and the plates were read on a microplate reader within 10 min (the detection wavelength was 450 nm; the reference wavelength was 620 nm).

human β-CGRP = target: T2, human β-CGRP; test: ELISA, hybridoma supernatant
CGRP antigen [5] = test: cell-based or functional assay; remark: listed apart in the source

Relative binding activity (%) vs Ref(Teva) (CGRP antigen [1]) [%] | Relative activity (%) (Biotin-huCGRPaSA [2]) | Relative binding activity (%) vs Ref(Teva) (CGRP antigen [3]) [%] | OD value (Biotin-huCGRPaSA [4]) [OD] | binding result (human β-CGRP) | EC50 (so labelled in the table under the curves; half-maximal inhibition of the CGRP-induced luciferase signal in SK-N-MC CRE 2E9 reporter cells, CGRP antigen at 4 ng/mL) (CGRP antigen [5]) [ng/mL] | Binder
– | – | – | – | binds | – | 3E5 (antibody, V domains shown, murine hybridoma supernatant; also called hybridoma antibody 3E5) VH: EVQLQQSGPELVKPGASVKISCKTSGYTFTDYNMHWVKQSHGKSLEWIGYISPYNGGTAYNQKFKFKSTLTVDTSSSTAYMELRSLTSEDSAVYYCAREGLGGYWGQGTTLTVSS VL: DIVLTQSPASLAVSLGQRATISCKASQNIDYDGYTYLNWYQQKPGQPPKVLIYSIFNLESGIPARFSGSGSGTDFTLNIHPVEEEDAATYYCQQSNEVPYTFGGGTKLEIK
– | 101 | – | 2.91 | – | 143 | C269 (antibody, V domains shown, 3E5-HC + 3E5-LC; chimeric, human constant regions) VH: EVQLQQSGPELVKPGASVKISCKTSGYTFTDYNMHWVKQSHGKSLEWIGYISPYNGGTAYNQKFKFKSTLTVDTSSSTAYMELRSLTSEDSAVYYCAREGLGGYWGQGTTLTVSS VL: DIVLTQSPASLAVSLGQRATISCKASQNIDYDGYTYLNWYQQKPGQPPKVLIYSIFNLESGIPARFSGSGSGTDFTLNIHPVEEEDAATYYCQQSNEVPYTFGGGTKLEIK
– | – | – | – | binds | – | 3C1 (antibody, V domains shown, murine hybridoma supernatant; also called hybridoma antibody 3C1) VH: EVQLQQSGPELVKPGASMKISCKASGYSFTGYTMNWVKQSHGNNLEWIGLINPYIGNTHYNQKFKDKATFTVDRSSSTAYMALLSLTSEDSAVYYCARELDSGFDYWGQGTTLTVSS VL: DVLMTQTPLSLPVSLGDQASLSCRSSQNIVHSNGDTYLEWYLQKPGQSPKLLIYKVSNRFSGVPDRFSGSGSGTDFTLKISRVEAEDLGVYYCYQGSHVPWTFGGGTKLEIK

Second part, the binder before the results:

Binder | Relative binding activity (%) vs Ref(Teva) (CGRP antigen [1]) [%] | Relative activity (%) (Biotin-huCGRPaSA [2]) | Relative binding activity (%) vs Ref(Teva) (CGRP antigen [3]) [%] | OD value (Biotin-huCGRPaSA [4]) [OD] | binding result (human β-CGRP) | EC50 (so labelled in the table under the curves; half-maximal inhibition of the CGRP-induced luciferase signal in SK-N-MC CRE 2E9 reporter cells, CGRP antigen at 4 ng/mL) (CGRP antigen [5]) [ng/mL]
C79 (antibody, V domains shown, 1F5-HC + 2B8-LC2; chimeric, human constant regions) VH: EVQLQQSGPELVKPGASVKISCKTSGYTFIDFNMHWVKQSHGKSLEWIGYIYPYNGDVVYNQNFTNKATLTVDSSSSTAYMELRRVTSEDSAIYYCAREGLGGYWGQGTTLTVSS VL: DVVLTQSPTSLAVSLGQRATISCQASQNIDGNTYMNWYQQKPGQPPKVLIYSIFNLESGIPARFSGSGSGTHFTLTIHPVEEEDAATYYCQQSNDYPYTFGGGTKLEIK | 71.1 | 59.8 | 71.1 | 3.03 | – | –
C117 (antibody, V domains shown, 2B8-HC1 + 1A2-LC2; chimeric, human constant regions) VH: EVQLQQSGPELVKPGASVKISCKASGYTFTDYNMHWVKQSHGKSLEWIGNIYPYNGGTVYNQKFNNKATLTVHTSSSTAYMDLRSLTSDDSAVYYCAREGLGGYWGQGTTLTVSS VL: DIVLTQSPASLAVSLGQRATISCKASQNIDYDGYAYLNWYQQKPGQPPKVLIYSVFNLESGIPARFSGSGSGTDFTLNIHPVEEEDAATYYCQQSNEFPYTFGGGTKLEVK | – | 31.7 | 74.1 | 3.06 | – | –
